Here are results for 1 substance from patent US8153134.

The target in the assay is human MDL-1 (human) (UniProt Q9NY25). The assay can be described thus: cell-based or functional assay.
human MDL-1 (human), sequence (Q9NY25 whole entry): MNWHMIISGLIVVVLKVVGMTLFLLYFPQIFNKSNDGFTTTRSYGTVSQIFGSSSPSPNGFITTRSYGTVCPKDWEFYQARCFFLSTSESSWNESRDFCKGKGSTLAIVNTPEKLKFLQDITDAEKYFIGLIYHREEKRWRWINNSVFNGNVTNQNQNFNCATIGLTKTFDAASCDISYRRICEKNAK

Turning to “rat isotype control mAb (rIgG1) (antibody)”, the secreted beta-hexosaminidase, OD (405-570), DT808 mouse mast cells, cross-link is 0.065 OD (405-570) and the secreted beta-hexosaminidase, OD (405-570), DT808 mouse mast cells, no cross-link was 0.1 OD (405-570).
